According to US20250340902A1, “GENE THERAPY FOR BVES-RELATED DISORDERS” (OHIO STATE INNOVATION FOUNDATION, priority 2022, published 2025):

Key:
Assay in all cases: anti-HA co-IP from muscle, MS; CTRL 0
[1] = biological target: Eukaryotic initiation factor 4A-III (Mus musculus) (UniProt Q91VC3)
[2] = biological target: Dystrobrevin alpha (Mus musculus) (UniProt Q9D2N4)
[3] = biological target: Heparin cofactor 2 (Mus musculus) (UniProt P49182)
[4] = biological target: Glutamine amidotransferase-like class 1 domain-containing protein 3A, mitochondrial (Mus musculus) (UniProt Q9D172)
Sequence of Glutamine amidotransferase-like class 1 domain-containing protein 3A, mitochondrial (Mus musculus) (Q9D172 40-266 limits assumed): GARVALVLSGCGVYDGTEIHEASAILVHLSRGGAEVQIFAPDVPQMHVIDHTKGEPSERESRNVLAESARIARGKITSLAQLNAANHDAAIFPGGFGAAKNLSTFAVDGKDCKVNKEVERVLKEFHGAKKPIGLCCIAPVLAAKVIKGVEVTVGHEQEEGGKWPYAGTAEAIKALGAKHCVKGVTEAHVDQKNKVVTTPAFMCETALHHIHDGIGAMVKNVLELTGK

[5] = biological target: Long-chain specific acyl-CoA dehydrogenase, mitochondrial (Mus musculus) (UniProt P51174)
[6] = biological target: Phosphofurin acidic cluster sorting protein 1 (Mus musculus) (UniProt Q8K212)
[7] = biological target: Nuclear mitotic apparatus protein 1 (Mus musculus) (UniProt E9Q7G0)
[8] = biological target: Band 3 anion transport protein (Mus musculus) (UniProt P04919)
[9] = biological target: Collagen alpha-1(XV) chain (Mus musculus) (UniProt O35206)
[10] = biological target: Heterogeneous nuclear ribonucleoprotein H2 (Mus musculus) (UniProt P70333)
[11] = biological target: Lupus La protein homolog (Mus musculus) (UniProt P32067)
Sequence of Lupus La protein homolog (Mus musculus) (P32067 whole entry): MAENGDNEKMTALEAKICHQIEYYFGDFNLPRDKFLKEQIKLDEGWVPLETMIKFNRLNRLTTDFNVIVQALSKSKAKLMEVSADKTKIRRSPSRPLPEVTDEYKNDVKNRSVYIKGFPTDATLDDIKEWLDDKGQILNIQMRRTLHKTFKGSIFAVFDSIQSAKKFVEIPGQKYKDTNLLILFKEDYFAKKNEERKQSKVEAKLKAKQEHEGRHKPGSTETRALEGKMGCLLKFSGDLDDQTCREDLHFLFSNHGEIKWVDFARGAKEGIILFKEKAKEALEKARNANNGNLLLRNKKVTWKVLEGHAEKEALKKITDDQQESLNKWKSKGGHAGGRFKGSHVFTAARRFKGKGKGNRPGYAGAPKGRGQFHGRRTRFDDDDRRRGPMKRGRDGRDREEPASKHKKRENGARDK

[12] = biological target: Eukaryotic translation initiation factor 3 subunit H (Mus musculus) (UniProt Q91WK2)
[13] = biological target: F-box only protein 40 (Mus musculus) (UniProt P62932)
[14] = biological target: 60S ribosomal protein L15 (Mus musculus) (UniProt Q9CZM2)
Cullin-2 (Mus musculus) = Cullin-2 (Mus musculus) (UniProt Q9D4H8)
Sequence of Cullin-2 (Mus musculus) (Q9D4H8 whole entry): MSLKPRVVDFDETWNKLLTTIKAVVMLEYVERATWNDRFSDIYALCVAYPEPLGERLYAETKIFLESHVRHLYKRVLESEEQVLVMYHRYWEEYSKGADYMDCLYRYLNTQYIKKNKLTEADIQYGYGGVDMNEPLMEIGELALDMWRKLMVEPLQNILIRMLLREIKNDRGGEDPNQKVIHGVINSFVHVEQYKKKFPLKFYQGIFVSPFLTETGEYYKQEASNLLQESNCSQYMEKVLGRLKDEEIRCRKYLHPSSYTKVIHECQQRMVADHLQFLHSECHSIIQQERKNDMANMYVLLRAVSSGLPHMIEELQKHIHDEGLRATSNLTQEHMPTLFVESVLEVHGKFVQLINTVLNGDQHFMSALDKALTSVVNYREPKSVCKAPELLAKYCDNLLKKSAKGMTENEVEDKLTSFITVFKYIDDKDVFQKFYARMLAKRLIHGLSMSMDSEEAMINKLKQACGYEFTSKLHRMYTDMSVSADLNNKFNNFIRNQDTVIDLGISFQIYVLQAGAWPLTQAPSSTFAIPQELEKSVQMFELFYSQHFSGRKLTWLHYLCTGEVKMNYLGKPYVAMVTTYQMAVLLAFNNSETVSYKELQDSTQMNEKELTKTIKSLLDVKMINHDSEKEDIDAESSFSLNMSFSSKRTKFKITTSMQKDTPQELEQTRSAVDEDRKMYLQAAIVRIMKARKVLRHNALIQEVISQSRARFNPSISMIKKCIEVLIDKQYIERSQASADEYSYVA

[15] = biological target: Delta-sarcoglycan (Mus musculus) (UniProt P82347)
Myocilin (Mus musculus) = Myocilin (Mus musculus) (UniProt O70624)
[16] = biological target: Serine-threonine kinase receptor-associated protein (Mus musculus) (UniProt Q9Z1Z2)
[17] = biological target: Dual specificity mitogen-activated protein kinase kinase 3 (Mus musculus) (UniProt O09110)
[18] = biological target: N-alpha-acetyltransferase 50 (Mus musculus) (UniProt Q6PGB6)
Sequence of N-alpha-acetyltransferase 50 (Mus musculus) (Q6PGB6 whole entry): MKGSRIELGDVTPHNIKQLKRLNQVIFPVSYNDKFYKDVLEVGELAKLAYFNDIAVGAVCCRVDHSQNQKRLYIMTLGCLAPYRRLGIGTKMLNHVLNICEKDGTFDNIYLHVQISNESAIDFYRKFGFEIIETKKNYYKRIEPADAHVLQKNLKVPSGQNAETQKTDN

[19] = biological target: von Willebrand factor A domain-containing protein 8 (Mus musculus) (UniProt Q8CC88)
[20] = biological target: Flavin reductase (NADPH) (Mus musculus) (UniProt Q923D2)
Ankyrin-3 (Mus musculus) = Ankyrin-3 (Mus musculus) (UniProt G5E8K5)
Sequence of Ankyrin-3 (Mus musculus) (G5E8K5 whole entry): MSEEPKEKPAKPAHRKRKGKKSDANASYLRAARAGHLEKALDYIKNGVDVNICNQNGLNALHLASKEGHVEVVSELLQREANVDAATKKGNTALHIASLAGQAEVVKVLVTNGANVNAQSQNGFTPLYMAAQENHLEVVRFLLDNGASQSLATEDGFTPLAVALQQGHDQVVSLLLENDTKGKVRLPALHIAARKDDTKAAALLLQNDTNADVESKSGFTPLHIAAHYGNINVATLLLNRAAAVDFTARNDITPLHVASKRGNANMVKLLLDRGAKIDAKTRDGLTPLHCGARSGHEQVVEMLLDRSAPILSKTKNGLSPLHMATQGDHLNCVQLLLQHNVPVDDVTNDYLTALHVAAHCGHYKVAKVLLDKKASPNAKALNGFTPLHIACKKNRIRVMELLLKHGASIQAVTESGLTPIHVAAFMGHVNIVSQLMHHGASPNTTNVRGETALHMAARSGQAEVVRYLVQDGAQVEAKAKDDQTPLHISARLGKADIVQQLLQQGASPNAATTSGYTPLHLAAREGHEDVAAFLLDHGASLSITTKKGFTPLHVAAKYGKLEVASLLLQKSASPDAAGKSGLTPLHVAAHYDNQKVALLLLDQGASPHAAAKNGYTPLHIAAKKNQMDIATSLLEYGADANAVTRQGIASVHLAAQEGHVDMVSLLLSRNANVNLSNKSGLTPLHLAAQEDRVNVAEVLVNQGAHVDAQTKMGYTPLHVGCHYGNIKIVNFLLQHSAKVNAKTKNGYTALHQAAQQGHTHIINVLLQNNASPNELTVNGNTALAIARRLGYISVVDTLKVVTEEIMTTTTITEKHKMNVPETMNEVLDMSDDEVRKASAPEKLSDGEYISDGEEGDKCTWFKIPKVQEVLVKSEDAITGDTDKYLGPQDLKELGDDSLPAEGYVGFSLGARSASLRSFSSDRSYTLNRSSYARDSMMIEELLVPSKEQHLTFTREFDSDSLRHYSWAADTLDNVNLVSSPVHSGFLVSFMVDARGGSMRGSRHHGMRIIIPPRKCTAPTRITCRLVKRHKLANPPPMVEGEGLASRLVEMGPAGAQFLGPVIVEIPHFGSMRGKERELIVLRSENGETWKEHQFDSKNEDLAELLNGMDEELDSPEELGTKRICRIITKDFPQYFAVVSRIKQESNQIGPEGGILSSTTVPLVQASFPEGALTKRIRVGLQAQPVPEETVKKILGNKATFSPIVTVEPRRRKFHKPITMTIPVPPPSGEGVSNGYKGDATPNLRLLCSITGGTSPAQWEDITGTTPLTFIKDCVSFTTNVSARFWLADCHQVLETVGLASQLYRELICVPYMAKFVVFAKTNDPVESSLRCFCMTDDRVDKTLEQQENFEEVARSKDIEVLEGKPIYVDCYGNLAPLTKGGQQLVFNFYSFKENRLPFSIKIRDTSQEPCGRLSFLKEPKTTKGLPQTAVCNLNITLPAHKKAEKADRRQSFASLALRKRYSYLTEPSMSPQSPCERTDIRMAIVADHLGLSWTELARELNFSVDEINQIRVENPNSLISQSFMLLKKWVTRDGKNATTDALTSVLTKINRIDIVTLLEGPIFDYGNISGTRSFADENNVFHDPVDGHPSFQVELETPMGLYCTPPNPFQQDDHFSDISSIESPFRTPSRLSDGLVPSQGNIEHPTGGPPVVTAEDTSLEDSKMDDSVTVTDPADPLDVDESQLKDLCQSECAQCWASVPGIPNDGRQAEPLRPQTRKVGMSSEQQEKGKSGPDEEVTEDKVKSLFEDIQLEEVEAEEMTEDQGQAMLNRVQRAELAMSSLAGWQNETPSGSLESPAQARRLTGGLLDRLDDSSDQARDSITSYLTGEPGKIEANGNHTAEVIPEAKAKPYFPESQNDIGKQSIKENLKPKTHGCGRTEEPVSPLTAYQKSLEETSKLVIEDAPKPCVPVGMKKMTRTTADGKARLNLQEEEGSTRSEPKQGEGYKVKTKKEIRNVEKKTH

[21] = biological target: GTP-binding protein SAR1b (Mus musculus) (UniProt Q9CQC9)
[22] = biological target: Barrier-to-autointegration factor (Mus musculus) (UniProt O54962)
[23] = biological target: Nucleolar protein of 40 kDa (Mus musculus) (UniProt Q9ESX4)
[24] = biological target: NADH dehydrogenase [ubiquinone] flavoprotein 1, mitochondrial (Mus musculus) (UniProt Q91YT0)
Sequence of NADH dehydrogenase [ubiquinone] flavoprotein 1, mitochondrial (Mus musculus) (Q91YT0 21-464 limits assumed): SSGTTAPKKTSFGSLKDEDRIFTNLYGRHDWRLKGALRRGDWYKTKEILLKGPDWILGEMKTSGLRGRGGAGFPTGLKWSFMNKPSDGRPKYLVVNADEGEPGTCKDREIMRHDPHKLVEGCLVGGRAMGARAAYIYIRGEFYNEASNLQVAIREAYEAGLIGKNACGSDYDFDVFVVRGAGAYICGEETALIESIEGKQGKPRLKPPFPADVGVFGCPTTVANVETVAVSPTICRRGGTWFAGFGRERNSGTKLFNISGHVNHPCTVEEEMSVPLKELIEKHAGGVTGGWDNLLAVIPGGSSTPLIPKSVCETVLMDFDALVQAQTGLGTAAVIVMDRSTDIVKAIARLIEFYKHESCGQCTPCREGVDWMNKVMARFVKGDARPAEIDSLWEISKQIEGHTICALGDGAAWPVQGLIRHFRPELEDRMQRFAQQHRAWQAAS

[25] = biological target: U1 small nuclear ribonucleoprotein 70 kDa (Mus musculus) (UniProt Q62376)
[26] = biological target: Protein phosphatase 1 regulatory subunit 3A (Mus musculus) (UniProt Q99MR9)
Sequence of Protein phosphatase 1 regulatory subunit 3A (Mus musculus) (Q99MR9 whole entry): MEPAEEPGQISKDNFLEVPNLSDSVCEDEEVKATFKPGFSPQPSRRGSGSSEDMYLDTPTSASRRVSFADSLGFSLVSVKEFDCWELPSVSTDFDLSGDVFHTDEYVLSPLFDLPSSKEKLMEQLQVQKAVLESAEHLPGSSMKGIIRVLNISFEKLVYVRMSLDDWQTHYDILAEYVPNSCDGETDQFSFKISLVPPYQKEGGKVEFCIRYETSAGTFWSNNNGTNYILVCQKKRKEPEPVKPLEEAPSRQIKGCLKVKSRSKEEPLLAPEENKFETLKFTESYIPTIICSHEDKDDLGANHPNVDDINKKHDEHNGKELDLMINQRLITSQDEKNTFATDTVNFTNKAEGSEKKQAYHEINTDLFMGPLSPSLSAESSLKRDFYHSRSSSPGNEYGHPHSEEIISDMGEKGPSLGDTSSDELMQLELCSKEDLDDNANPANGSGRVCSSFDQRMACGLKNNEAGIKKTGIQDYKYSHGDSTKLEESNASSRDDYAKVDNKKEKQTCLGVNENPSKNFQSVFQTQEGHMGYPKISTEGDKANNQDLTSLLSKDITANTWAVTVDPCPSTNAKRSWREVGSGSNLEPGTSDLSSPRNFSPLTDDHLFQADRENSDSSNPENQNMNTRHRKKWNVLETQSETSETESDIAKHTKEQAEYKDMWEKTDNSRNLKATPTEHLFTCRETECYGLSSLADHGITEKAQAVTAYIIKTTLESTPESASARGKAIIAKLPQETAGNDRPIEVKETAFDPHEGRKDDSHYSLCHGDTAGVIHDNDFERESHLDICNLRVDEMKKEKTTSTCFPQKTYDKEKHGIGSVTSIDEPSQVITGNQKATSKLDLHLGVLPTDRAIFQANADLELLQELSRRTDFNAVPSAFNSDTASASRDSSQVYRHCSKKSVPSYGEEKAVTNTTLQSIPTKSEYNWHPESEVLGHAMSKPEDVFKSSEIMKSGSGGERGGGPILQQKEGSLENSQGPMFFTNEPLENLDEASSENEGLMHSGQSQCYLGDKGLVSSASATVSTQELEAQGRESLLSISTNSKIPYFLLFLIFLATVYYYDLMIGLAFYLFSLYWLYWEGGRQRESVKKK

[27] = biological target: NADH dehydrogenase [ubiquinone] iron-sulfur protein 6, mitochondrial (Mus musculus) (UniProt P52503)
[28] = biological target: Solute carrier family 12 member 1 (Mus musculus) (UniProt P55014)
[29] = biological target: Glutathione S-transferase LANCL1 (Mus musculus) (UniProt O89112)
[30] = biological target: Keratin, type II cytoskeletal 7 (Mus musculus) (UniProt Q9DCV7)
[31] = biological target: Microtubule-associated protein 4 (Mus musculus) (UniProt P27546)
[32] = biological target: EH domain-containing protein 2 (Mus musculus) (UniProt Q8BH64)
[33] = biological target: Cell cycle progression protein 1 (Mus musculus) (UniProt Q640L3)
[34] = biological target: RUN and FYVE domain-containing protein 1 (Mus musculus) (UniProt Q8BIJ7)
Fibulin-1 (Mus musculus) = Fibulin-1 (Mus musculus) (UniProt Q08879)

AAV9-BVES-HA (IP-MS count) [1]: 3
AAV9-BVES-HA (IP-MS count) [2]: 4
AAV9-BVES-HA (IP-MS count) [3]: 4
AAV9-BVES-HA (IP-MS count) [4]: 4
AAV9-BVES-HA (IP-MS count) [5]: 4
AAV9-BVES-HA (IP-MS count) [6]: 2
AAV9-BVES-HA (IP-MS count) [7]: 2
AAV9-BVES-HA (IP-MS count) [8]: 4
AAV9-BVES-HA (IP-MS count) [9]: 7
AAV9-BVES-HA (IP-MS count) [10]: 4
AAV9-BVES-HA (IP-MS count) [11]: 2
AAV9-BVES-HA (IP-MS count) [12]: 2
AAV9-BVES-HA (IP-MS count) [13]: 2
AAV9-BVES-HA (IP-MS count) [14]: 4
AAV9-BVES-HA (IP-MS count) (Cullin-2 (Mus musculus)): 3
AAV9-BVES-HA (IP-MS count) [15]: 5
AAV9-BVES-HA (IP-MS count) (Myocilin (Mus musculus)): 2
AAV9-BVES-HA (IP-MS count) [16]: 2
AAV9-BVES-HA (IP-MS count) [17]: 3
AAV9-BVES-HA (IP-MS count) [18]: 2
AAV9-BVES-HA (IP-MS count) [19]: 4
AAV9-BVES-HA (IP-MS count) [20]: 2
AAV9-BVES-HA (IP-MS count) (Ankyrin-3 (Mus musculus)): 242
AAV9-BVES-HA (IP-MS count) [21]: 3
AAV9-BVES-HA (IP-MS count) [22]: 3
AAV9-BVES-HA (IP-MS count) [23]: 2
AAV9-BVES-HA (IP-MS count) [24]: 3
AAV9-BVES-HA (IP-MS count) [25]: 2
AAV9-BVES-HA (IP-MS count) [26]: 12
AAV9-BVES-HA (IP-MS count) [27]: 2
AAV9-BVES-HA (IP-MS count) [28]: 2
AAV9-BVES-HA (IP-MS count) [29]: 2
AAV9-BVES-HA (IP-MS count) [30]: 17
AAV9-BVES-HA (IP-MS count) [31]: 2
AAV9-BVES-HA (IP-MS count) [32]: 6
AAV9-BVES-HA (IP-MS count) [33]: 2
AAV9-BVES-HA (IP-MS count) [34]: 5
AAV9-BVES-HA (IP-MS count) (Fibulin-1 (Mus musculus)): 3
Substance: human BVES fused with 3xHA tag (from UniProt Q8NE79 1-360)
